Data taken from patent US20260007747A1 (VIVASOR, published 2026).

B1: αPDL1-γ-TCRγδ receptor encoded by construct GD109 (other)
chain 1: EVQLVESGAEVKKPGSSVKVSCKASGGTFSSYAISWVRQAPGQGLEWMGGIIPIFGTANYAQKFQGRVTITADESTSTAYMELSSLRSEDTAVYYCARAPYYYYYMDVWGQGTTVTVSSGGGGSGGGGSGGGGSQSALTQPASVSGSLGQSVTISCTGSSSDVGSYNLVSWYQQHPGKAPNLMIYDVSKRSGVSNRFSGSKSGNTASLTISGLQAEDEADYYCSSYTGISTVVFGGGTKLTVLPIKTDVITMDPKDNCSKDANDTLLLQLTNTSAYYMYLLLLLKSVVYFAIITCCLLRRTAFCCNGEKS
chain 2: EVKTDSTDHVKPKETENTKQPSKSCHKPKAIVHTEKVNMMSLTVLGLRMLFAKTVAVNFLLTAKLFFL
B2: αPDL1-δ-TCRγδ receptor encoded by construct GD102 (other)
chain 1: EVQLVESGAEVKKPGSSVKVSCKASGGTFSSYAISWVRQAPGQGLEWMGGIIPIFGTANYAQKFQGRVTITADESTSTAYMELSSLRSEDTAVYYCARAPYYYYYMDVWGQGTTVTVSSGGGGSGGGGSGGGGSQSALTQPASVSGSLGQSVTISCTGSSSDVGSYNLVSWYQQHPGKAPNLMIYDVSKRSGVSNRFSGSKSGNTASLTISGLQAEDEADYYCSSYTGISTVVFGGGTKLTVLEVKTDSTDHVKPKETENTKQPSKSCHKPKAIVHTEKVNMMSLTVLGLRMLFAKTVAVNFLLTAKLFFL
chain 2: PIKTDVITMDPKDNCSKDANDTLLLQLTNTSAYYMYLLLLLKSVVYFAIITCCLLRRTAFCCNGEKS
B3: PD-L1 CAR-ζFL (other)
chain: EVQLVESGAEVKKPGSSVKVSCKASGGTFSSYAISWVRQAPGQGLEWMGGIIPIFGTANYAQKFQGRVTITADESTSTAYMELSSLRSEDTAVYYCARAPYYYYYMDVWGQGTTVTVSSGGGGSGGGGSGGGGSQSALTQPASVSGSLGQSVTISCTGSSSDVGSYNLVSWYQQHPGKAPNLMIYDVSKRSGVSNRFSGSKSGNTASLTISGLQAEDEADYYCSSYTGISTVVFGGGTKLTVLAKPTTTPAPRPPTPAPTIASQPLSLRPEACRPAAGGAVHTRGLDFAPRKIEVMYPPPYLDNEKSNGTIIHVKGKHLCPSPLFPGPSKPFWVLVVVGGVLACYSLLVTVAFIIFWVKRGRKKLLYIFKQPFMRPVQTTQEEDGCSCRFPEEEEGGCELRVKFSRSADAPAYQQGQNQLYNELNLGRREEYDVLDKRRGRDPEMGGKPRRKNPQEGLYNELQKDKMAEAYSEIGMKGERRRGKGHDGLYQGLSTATKDTYDALHMQALPPR

Target: PD-L1 expressed on tumor cells (A549 wild type, MDA-MB-231, SK-MEL-5) (human, UniProt Q9NZQ7 19-290)
Assay: cell-based or functional assay

Sequence of PD-L1 expressed on tumor cells (A549 wild type, MDA-MB-231, SK-MEL-5) (Q9NZQ7 19-290): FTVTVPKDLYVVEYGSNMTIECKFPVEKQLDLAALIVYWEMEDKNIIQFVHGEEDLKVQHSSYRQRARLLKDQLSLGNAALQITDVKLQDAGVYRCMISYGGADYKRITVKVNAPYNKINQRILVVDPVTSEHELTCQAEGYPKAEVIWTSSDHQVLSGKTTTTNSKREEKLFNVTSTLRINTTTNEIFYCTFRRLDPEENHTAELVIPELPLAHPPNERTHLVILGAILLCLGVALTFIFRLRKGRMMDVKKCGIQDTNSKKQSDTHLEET

| Binder | expansion of T cells on irradiated tumor cells, E:T 1:4 |
| --- | --- |
| B1 | > 100 fold |
| B2 | > 100 fold |
| B3 | > 100 fold |
